Data reported in patent US20090092595A1, “Suppression of sPLA2-integrin binding for treating an inflammatory condition” (REGENTS OF THE UNIVERSITY OF CALIFORNIA, priority 2007, published 2009).

Key:
fibronectin domains 8-11 = assay: Adhesion of U937 cells to the cell-binding domain of fibronectin in the presence of sPLA2-IIA; format: cell-based, human; details: increasing concentrations of sPLA2-IIA, 1 h, 37° C.
Description: (§1) FIG. 5. sPLA2-IIA binding to integrin α4β1. a) Cells expressing recombinant α4β1 adhered to wt sPLA2-IIA better than cells expressing other recombinant integrins. We used transfected K562 cells clonally express different human integrins for adhesion assays. Low background adhesion to BSA was subtracted. […] Wells of 96-well microtiter plate were coated with VCAM-1 and FN-GST, and incubated with U937 cells (1×10^4 cells/plate) in the presence of the increasing concentrations of sPLA2-IIA for 1 h at 37° C. Adherent cells were quantified using endogenous phosphatase after gently rinsing the well to remove unbound cells. Data is shown as means+/−SEM of triplicate experiments. *P=0.0101 and **P<0.0001 by t-test. c) Amino acid sequence in the α4 subunit that is critical for VCAM-1 and CS-1 binding is also critical for sPLA2-IIA binding. CHO cells that clonally express wt or mutant α4 (Irie, A. et al., Embo J, 14(22): 5550-5556 (1995)) were used for adhesion assays. Data is shown as means+/−SEM of triplicate experiments. Similar results were obtained using K562 cells expressing α4 mutants (not shown).
(§2) Other methods We performed docking simulation of interaction between sPLA2-IIA and integrin αvβ3 using the AutoDock3 as previously described (Mori, S. et al., J Biol Chem, in press (2008)). […]

[1] = tested on: mock-transfected K562 cells; assay: Proliferation of mock-transfected K562 cells (MTS assay); format: cell-based, human; details: serum-starved 48 h, stimulated 48 h
Description: Cells were serum-starved for 48 h and stimulated with sPLA2-IIA for 48 h. Cell proliferation was determined by MTS assays. Data is shown as means+/−SEM of triplicate experiments. α4- and αvβ3-K562 cells proliferated faster than mock-K562 cells. […] Serum-starved cells were stimulated with wt or mutant sPLA2-IIA (0.5 μg/ml) for 48 h. Data is shown as means+/−SEM of triplicate experiments. α4-K562 and αvβ3-K562 cells grew faster than mock K562 cells with wt and H47Q sPLA2-IIA (*P<0.05 by t-test).
(§3) Cell proliferation and MAP kinase activation K562 cells and human monocytic lymphoma U937 cells were maintained in RPM11640 medium supplemented with 10% FCS. Cells were plated in 96-well plates (1×10^4 cells/well), and serum-starved for 48 h at 37° C. in 5% CO2 atmosphere. Cells were then treated with or without sPLA2-IIA in medium without serum for 48 h. Cell proliferation was determined by MTS assays using the Aqueous Cell Proliferation Assay Kit (Promega). For MAP kinase activation assays, cells were serum starved in RPMI1640 medium supplemented with 0.4% FCS for 24 h, and stimulated with Wt and mutant sPLA2-IIA (0.5 μg/ml) for 10 min at 37° C. ERK1/2 activation was measured as described (Mori, S. et al., J Biol Chem, in press (2008)).

integrin α4β1 = molecular target: T1, integrin α4β1 (Homo sapiens, UniProt P05556+P13612); assay: Adhesion of α4-K562 cells (recombinant α4β1) to immobilized sPLA2-IIA; format: cell-based; details: compared with mock-transfected K562 cells
T1 construct: K562 cells have endogenous α5β1; expressed in transfected cells; host or cells: K562
T1 sequence (P13612 34-1032): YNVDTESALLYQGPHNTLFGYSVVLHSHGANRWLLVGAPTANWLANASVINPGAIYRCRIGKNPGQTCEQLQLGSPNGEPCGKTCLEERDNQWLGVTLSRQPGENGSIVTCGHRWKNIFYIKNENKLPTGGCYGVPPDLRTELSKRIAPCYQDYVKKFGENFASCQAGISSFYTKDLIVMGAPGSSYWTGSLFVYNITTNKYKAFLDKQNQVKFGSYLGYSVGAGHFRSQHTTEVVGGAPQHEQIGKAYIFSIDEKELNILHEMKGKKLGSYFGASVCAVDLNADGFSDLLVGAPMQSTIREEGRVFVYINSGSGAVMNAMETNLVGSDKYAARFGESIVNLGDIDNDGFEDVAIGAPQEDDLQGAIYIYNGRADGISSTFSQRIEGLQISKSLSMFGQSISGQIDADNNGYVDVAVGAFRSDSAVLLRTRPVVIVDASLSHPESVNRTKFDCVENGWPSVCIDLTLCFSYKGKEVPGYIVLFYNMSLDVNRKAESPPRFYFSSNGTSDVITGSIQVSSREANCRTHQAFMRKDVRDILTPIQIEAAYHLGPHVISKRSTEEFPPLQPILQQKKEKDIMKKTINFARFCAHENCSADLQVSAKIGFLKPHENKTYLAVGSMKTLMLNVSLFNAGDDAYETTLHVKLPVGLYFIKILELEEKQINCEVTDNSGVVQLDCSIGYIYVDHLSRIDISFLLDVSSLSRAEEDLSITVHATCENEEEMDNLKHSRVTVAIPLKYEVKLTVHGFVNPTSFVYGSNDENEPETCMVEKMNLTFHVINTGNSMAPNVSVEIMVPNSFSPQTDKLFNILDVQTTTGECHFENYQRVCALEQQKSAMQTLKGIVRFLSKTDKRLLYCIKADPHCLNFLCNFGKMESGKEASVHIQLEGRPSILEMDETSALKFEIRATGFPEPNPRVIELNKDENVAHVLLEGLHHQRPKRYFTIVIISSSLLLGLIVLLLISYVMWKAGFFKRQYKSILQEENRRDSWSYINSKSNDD
T1 sequence (P05556 21-798): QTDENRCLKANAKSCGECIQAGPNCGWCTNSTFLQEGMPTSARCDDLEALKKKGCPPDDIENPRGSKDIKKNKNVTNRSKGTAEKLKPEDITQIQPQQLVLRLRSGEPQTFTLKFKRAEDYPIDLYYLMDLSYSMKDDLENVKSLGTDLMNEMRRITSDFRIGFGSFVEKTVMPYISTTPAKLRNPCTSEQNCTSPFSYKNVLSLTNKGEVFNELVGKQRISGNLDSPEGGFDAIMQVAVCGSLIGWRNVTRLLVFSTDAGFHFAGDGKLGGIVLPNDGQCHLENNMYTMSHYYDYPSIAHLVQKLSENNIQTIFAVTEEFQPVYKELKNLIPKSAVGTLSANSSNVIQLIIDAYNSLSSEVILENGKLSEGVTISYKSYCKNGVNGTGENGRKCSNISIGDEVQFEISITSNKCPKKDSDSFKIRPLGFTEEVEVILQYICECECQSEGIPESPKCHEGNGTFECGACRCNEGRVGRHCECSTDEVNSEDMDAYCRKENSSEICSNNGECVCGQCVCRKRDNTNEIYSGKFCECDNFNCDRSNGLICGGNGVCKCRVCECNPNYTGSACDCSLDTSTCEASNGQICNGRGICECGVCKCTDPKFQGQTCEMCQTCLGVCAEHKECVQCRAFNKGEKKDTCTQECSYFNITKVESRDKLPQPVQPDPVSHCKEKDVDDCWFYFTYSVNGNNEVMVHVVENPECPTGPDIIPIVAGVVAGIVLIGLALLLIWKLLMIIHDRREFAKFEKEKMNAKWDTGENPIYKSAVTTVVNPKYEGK
Description: as §1, §2

ERK1/2 = assay: MAP kinase (ERK1/2) activation in U937 cells, western blotting; format: cell-based, human; details: 0.5 μg/ml, 10 min, 37° C.
Description: U937 cells (αvβ3+, α4β1+) were plated in wells of 96-well plates (10,000 cells/well), and serum-starved for 48 h. After treatment with wt or mutant sPLA2-IIA for 48 h, we measured cell proliferation by MTS assays. […] U937 cells were serum-starved for 24 h, and stimulated with wt and mutant sPLA2-IIA (0.5 μg/ml) for 10 min at 37° C. Cell lysates were analyzed by western blotting with anti-phospho ERK1/2 or anti-ERK1/2 antibodies. The blot is representative of three independent experiments.
as §3

α4β1 binding to VCAM-1 = molecular target: T2, α4β1 binding to VCAM-1 (Homo sapiens, UniProt P05556+P13612); assay: Adhesion of U937 cells to VCAM-1 in the presence of sPLA2-IIA; format: cell-based; details: increasing concentrations of sPLA2-IIA, 1 h, 37° C.
T2 construct: integrin α4β1, a major integrin in U937 cells; endogenous in cells; host or cells: U937
T2 sequence (P13612 34-1032): as the sequence (P13612 34-1032) above
T2 sequence (P05556 21-798): as the sequence (P05556 21-798) above
Description: as §1, §2

B1: wt sPLA2-IIA: Secretory phospholipase A2 group IIA, wild type, recombinant from bacteria BL21, refolded (protein)
chain: NLVNFHRMIKLTTGKEAALSYGFYGCHCGVGGRGSPKDATDRCCVTHDCCYKRLEKRGCGTKFLSYKFSNSGSRITCAKQDSCRSQLCECDKAAATCFARNKTTYNKKYQYYSNKHCRGSTPRC
modifications: left off: small tags and cut ends
cell adhesion to fibronectin domains 8-11 (fibronectin domains 8-11): did not suppress cell adhesion
proliferation of mock-transfected K562 cells [1]: did not induce proliferation
adhesion of α4-K562 cells to immobilized wt sPLA2-IIA (integrin α4β1): better than mock-transfected K562 cells
ERK1/2 activation in U937 cells (ERK1/2): induced
adhesion of U937 cells to VCAM-1 (α4β1 binding to VCAM-1): suppressed adhesion
